Assay results published in publication PMC3963902, “Esterase LpEst1 from Lactobacillus plantarum: A Novel and Atypical Member of the αβ Hydrolase Superfamily of Enzymes” (PLoS ONE, 2014).

Assays:
[1] = substrate: CC(=O)Oc1ccc([N+](=O)[O-])cc1; assay: spectrophotometric p-nitrophenol release; type: biochemical, Lactiplantibacillus plantarum; conditions: 50 mM sodium phosphate, pH 7.0, 30 °C
Description: (§1) spectrophotometric p-nitrophenol release on LpEst1

[2] = substrate: CCCC(=O)Oc1ccc([N+](=O)[O-])cc1; assay: spectrophotometric p-nitrophenol release; type: biochemical, Lactiplantibacillus plantarum; conditions: 50 mM sodium phosphate, pH 7.0, 30 °C
Description: as §1

B1: LpEst1 (Lactiplantibacillus plantarum) (protein)
chain: MPTINSIQTTVNGVVKIVKPFNNDIAGEQFDPHVLQTLTAFKQPAILENDLAALRSGSLTPAIADPVGDAVTVQSRNITALNRTVSVEWLTPQNVINHTVLVYFHGGAFYGGVPGNNTVLLKLVAAKSHCEILNVDYSLAPEAPAPAGILDGLAIFQYLEQRDAETMITVAGDSAGANVIMAATNLNQQLGSNRINQQLLLYPVTAPNADHAGPLWDLAAFPIIDSQRAILTNYHDLFRQLDSIMTDYYVPENFDSHSPLISPLHQENFTMTPPTTIMVGEFDPFRPQAWAYAQRLAAADTATTFIQYQGLNHAFAPLVDQYWQSQDVAQVMAAALI
notes: homodimer
[1]
  Km: 380 ± 50 µM
  Vmax: 75 µmol/min/mg
  kcat: 40.4 ± 2 s⁻¹
[2]
  Km: 200 ± 100 µM
  Vmax: 8 µmol/min/mg
  kcat: 4.4 ± 0.3 s⁻¹
